Test results taken from patent publication US20150004190A1.

Assays:
[1] = biological target: Peptide ELDKWA (HIV-1); experiment: ELISA on coated peptide
[2] = biological target: Peptide ELDKWA (HIV-1); experiment: ELISA on coated peptide (FIG. 1)
[3] = biological target: Peptide ELDKWA (HIV-1); experiment: competitive ELISA, competitor 0.027 nM 2F5 IgA2 detected with anti-human IgA

B1: 2F5 IgA2 (antibody, V domains shown)
VH: RITLKESGPPLVKPTQTLTLTCSFSGFSLSDFGVGVGWIRQPPGKALEWLAIIYSDDDKRYSPSLNTRLTITKDTSKNQVVLVMTRVSPVDTATYFCAHRRGPTTLFGVPIARGPVNAMDVWGQGITVTI
VL: ALQLTQSPSSLSASVGDRITITCRASQGVTSALAWYRQKPGSPPQLLIYDASSLESGVPSRFSGSGSGTEFTLTISTLRPEDFATYYCQQLHFYPHTFGGGTRVDVR
fold higher efficacy as compared to IgG1 [1]: > 100 fold
antibody concentration of equivalent binding activity [2]: 0.05 nM

B2: 2F5 IgG1 (antibody, V domains shown)
VH: B1 VH
VL: B1 VL
concentration needed to compete [3]: 25 nM
antibody concentration of equivalent binding activity [2]: 6.25 nM
